Measurements as given in paper PMC3605045, “GH1-family 6-P-β-glucosidases from human microbiome lactic acid bacteria” (Acta Crystallographica Section D: Biological Crystallography, 2013).

Biological target: 6-P-β-glucosidase from Lactobacillus plantarum WCFS1 (LpPgb1) (Lactobacillus plantarum WCFS1)
Test: SEC; Superdex 200 16/60, 20 mM HEPES-NaOH pH 8.0, 250 mM NaCl, 2 mM DTT, proteins ~3 mg/ml, 1 ml/min, calibrated with ferritin, aldolase, conalbumin and ovalbumin; oligomeric state from the elution volume

## 6-P-β-glucosidase from Lactobacillus plantarum WCFS1 (LpPgb1) (enzyme)
  stoichiometry N: 2
